According to patent US20240052061A1 (PURINOMIA BIOTECH, published 2024):

What was measured:
[1] = molecular target: T1, human ecto-nucleoside triphosphate diphosphohydrolase-3 (NTPDase3) (human, UniProt O75355 1-529); experiment: cell-based or functional assay
T1 sequence (looked up): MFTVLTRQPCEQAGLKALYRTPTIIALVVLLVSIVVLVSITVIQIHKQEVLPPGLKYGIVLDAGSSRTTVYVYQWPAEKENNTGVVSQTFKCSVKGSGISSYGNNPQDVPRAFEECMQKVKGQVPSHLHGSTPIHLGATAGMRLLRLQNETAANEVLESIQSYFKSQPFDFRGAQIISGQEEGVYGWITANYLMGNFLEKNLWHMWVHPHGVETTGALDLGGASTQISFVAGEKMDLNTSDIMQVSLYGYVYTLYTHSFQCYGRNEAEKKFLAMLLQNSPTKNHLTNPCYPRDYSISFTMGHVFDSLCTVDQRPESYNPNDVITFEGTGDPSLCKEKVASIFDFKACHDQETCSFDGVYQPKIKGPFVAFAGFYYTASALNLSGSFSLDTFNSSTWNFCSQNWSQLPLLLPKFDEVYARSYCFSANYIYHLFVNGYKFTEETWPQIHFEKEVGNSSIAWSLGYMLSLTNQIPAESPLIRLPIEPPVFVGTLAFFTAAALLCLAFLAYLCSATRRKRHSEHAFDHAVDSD

[2] = molecular target: T1, human ecto-nucleoside triphosphate …; experiment: cell-based or functional assay; remark: listed apart in the source

Binder	ADCC EC50 (µg/mL), NFAT luciferase reporter Jurkat/hCD16a-158V [1]	CDC EC50 [1]	Enzyme Activity Inhibition Capacity: % of Maximal Inhibition [1]	Enzyme Activity Inhibition Capacity: EC50 [1]	EC50 of hENTPD3 enzyme activity inhibition, CHO-hENTPD3 cells, antibody 30 minutes [2]	enzyme activity inhibition capacity, maximal inhibition [2]	ADCC fold increase in relation to parental clone at 1 µg/mL [1]	CDC % of Maximal Cytotoxicity [1]
38D5 Hu/Ra (antibody, V domains shown) VH: QELVESGGGLVQPGGSLKLSCKASGIDFNNYGISWVRQAPGKGLEWIAYKYPGFGIRNYANSVKGRFTISSDNAQNTVFLQMTSLAASDTATYFCARGARYRHDDYGALNLWGPGTLVTVSS VL: DIVMTQTPPSVSAAVGGTVTINCQASQSVTNLLAWYQQKPGQPPKLLIYGASNLESGVPSRFRGSGSGTEFTLTISGMKAEDAATYYCQSGYYSANTFGAGTKVGIKR	0.104 µg/mL	1.73 µg/mL	44%	0.31 µg/mL	15.9 µg/mL	~40%		1%
38D12 Hu/Ra (antibody, V domains shown) VH: QSVEESGGRLVTPGTPLTLTCTVSGFSLSSYVINWVRQAPGKGLEWIGTISSSGSTYYASWAKGRFTISTTSSTTVDLKITSPTTEDTATYFCARGADGAFISDYFNIWGPGTLVTVSS VL: DIVMTQTPSSVSAAVGGTVTIKCQANENIDSWLAWYQQKPGQRPKLLIYYASTLASGVPSRFKGSGSGTEYTLTISDLECADGATYYCQSYDTISDYGVGFGGGTEVVVKG	0.059 µg/mL		9%					
38D5 hIgG1 (antibody, V domains shown) VH: EQQLLESGGGLVQPGGSLRLSCAASGIDFNNYGISWVRQAPGKGLEWIAYKYPGFGIRNYANSVKGRFTISSDNSKNTVYLQMNSLRAEDTAVYFCARGARYRHDDYGALNLWGPGTLVTVSS VL: DIQMTQSPSTLSASVGDRVTITCQASQSVTNLLAWYQQKPGKPPKLLIYGASNLESGVPSRFSGSGSGTEFTLTISSLQPDDFATYYCQSGYYSANTFGPGTKVDIK	0.104 µg/mL	0.694 µg/mL	43%	0.22 µg/mL			1.2 fold	4%
38D5 hIgG4 (antibody, V domains shown) VH: EQQLLESGGGLVQPGGSLRLSCAASGIDFNNYGISWVRQAPGKGLEWIAYKYPGFGIRNYANSVKGRFTISSDNSKNTVYLQMNSLRAEDTAVYFCARGARYRHDDYGALNLWGPGTLVTVSS VL: DIQMTQSPSTLSASVGDRVTITCQASQSVTNLLAWYQQKPGKPPKLLIYGASNLESGVPSRFSGSGSGTEFTLTISSLQPDDFATYYCQSGYYSANTFGPGTKVDIK			41%					
3E9 Hu/Ra (antibody, V domains shown) VH: QSLEESGGDLVKPGASLTLTCTASGFSFSSSDWICWVRQAPGKGLEWIACIYAGSIGGAYFASWVNGRFTISRASSTTVTLQMTSLTAADTATYFCARSSSNGRLKLDQFDLWGPGTLVTVSS VL: AYDMTQTPASVEVAVGGTVTINCQASQSIGGWLSWYRQKPGQPPSLLIYKASTLASGVSSRFSGTGSRTHFTLTINGVQCADAATYYCQQGSAADVANTFGGGTEVVVKG	0.044 µg/mL		6%					
4F9 Hu/Ra (antibody, V domains shown) VH: QSVEESGGRLVTPGTPLTLTCTVSGFSLSSYAMGWVRQAPGKGLEFIGIITYNGNTYYASWAKGRFPISKTSSTTVDLKMTSPTTEDTATYFCARARYGGYSTNSYYLNIWGPGTLVTVSS VL: DVVMTQTPASVSAAVGGTVTINCQASENIYRILAWYQQKPGQRPKLLIYGASNLETGVPSRFKGSGSGTEYTLTISDLECDDAATYYCQGVLYNSNDSTFGGGTEVVVKG	0.064 µg/mL		12%					
16D4 Hu/Ra (antibody, V domains shown) VH: QSVEESGGRLVTPGTPLTLTCTVSGFSLSSYAMGWVRQAPGKGLEFIGIITYNGGTYYASWAKGRFPISKTSSTTVDLKMTSPTTEDTATYFCARARYGGYSTNSYYLNIWGPGTLVTVSS VL: DVVMTQTPASVSAAVGGTVTINCQASENIYRVLAWYQQKPGQRPKLLIYGASNLETGVPSRFKGSGSGTEYTLTISDLECDDAATYYCQGVLYDNNDSTFGGGTEVVVKG	0.053 µg/mL		9%					
8E1 Hu/Ra (antibody, V domains shown) VH: QSVEESGGRLVTPGTPLTLTCTVSGFSLSSYAMGWVRQAPGKGLEFIGIISYSGNTYYASWAKGRFPISKTSSTTVDLKMTSPTTEDTANYFCARARYGGYSTNSYYLNIWGPGTLVTVSS VL: DVVMTQTPASVEAAVGGTVTINCQASENIYRVLAWYQQKPGQRPKLLIYGASNLESGVPSRFKGSGSGTDYTLTISDLECDDAATYYCQGVVYNSDDSAFGGGTEVVVKG	0.075 µg/mL	0.239 µg/mL	5%					13%
37H1 Hu/Ra (antibody, V domains shown) VH: QSVEESGGRLVTPGTPLTLTCTVSGFSLSSYAVGWVRQAPGKGLEFIGIITYNGATYYASWAEGRFPISKTSSTTVDLKMTSPTTEDTATYFCARARYGGYSTNSYYLNIWGPGTLVTVSS VL: DVVMTQTPASVSAAVGGTVTINCQASENIYRILAWYQQKPGQRPKLLIYGASNLETGVPSRFKGSGSGTEYTLTISDLECDDAATYYCQGVLWNSNDSTFGGGTEVVVKG	0.044 µg/mL		9%					

Further lines, with some results ahead:

ADCC EC50 (µg/mL), NFAT luciferase reporter Jurkat/hCD16a-158V [1]	CDC EC50 [1]	Enzyme Activity Inhibition Capacity: % of Maximal Inhibition [1]	Enzyme Activity Inhibition Capacity: EC50 [1]	EC50 of hENTPD3 enzyme activity inhibition, CHO-hENTPD3 cells, antibody 30 minutes [2]	enzyme activity inhibition capacity, maximal inhibition [2]	ADCC fold increase in relation to parental clone at 1 µg/mL [1]	Binder	CDC % of Maximal Cytotoxicity [1]
0.045 µg/mL		15%					44H5 Hu/Ra (antibody, V domains shown) VH: QEQLEESGGDLVKPEGSLTLTCTASGFDSSSTYYMCWVRQAPGKGLEWSGCIYTGGLTYYASWAKGRFTISKTSSTTVTLQMTSLTAADTATYFCASYIGSRFYMPGFSLWGPGTLVTVSS VL: AIVMTQTPSSKSVPVGDTVTINCQASESIYSNNRLAWFQQKPGQPPKLLIYLASTLASGVPSRFKGSGSGTQFTLTISDVVCDDAATYYCAGYKGSSTDGTAFGGGTEVVVKG	
0.072 µg/mL		12%					42D8 Hu/Ra (antibody, V domains shown) VH: QSVEESGGRLVTPGTPLTLTCTVSGFSLSSYAMGWVRQAPGKGLEFIGIITYNSNTYYANWAKGRFPISKTSSTTVDLKMTSPTTEDTATYFCARARYGGYSTNSYYLNIWGPGTLVTVSS VL: DVVMTQTPASVSAAVGGTVTINCQASENIYRILAWYQQKPGQPPKLLIYGASNLETGVPSRFKGSGSGTEYTLTISDLECDDAATYYCQGVLYNSNDSTFGGGTEVVVKG	
0.434 µg/mL		91%	0.82 µg/mL		~100%	2.8 fold	PBI #30af4 hIgG1 (antibody, V domains shown) VH: QVQLQESGGGLIQPGGSLRLSCAASGFTSSSSDYAMSWVRQAPGKGLEWVSSISGSGVSTYYADSVKGRFTISRDNSKNTLYVQMTSLTAEDTAVYYCAKVVGYSVYDYYYHYALDVWGQGTTVTVSS VL: QPVLTQPPSASGTPGQRVTISCSGSSSNIGSNTVNWYQQLPGTAPKLLIYSDNQRPSGVPDRFSGSKSGTSASLTISGLKTEDEAGYYCQSDDTSNVVFGGGTKVTVL	
		95%	1.33 µg/mL		~100%		PBI #30af4 hIgG4 (antibody, V domains shown) VH: QVQLQESGGGLIQPGGSLRLSCAASGFTSSSSDYAMSWVRQAPGKGLEWVSSISGSGVSTYYADSVKGRFTISRDNSKNTLYVQMTSLTAEDTAVYYCAKVVGYSVYDYYYHYALDVWGQGTTVTVSS VL: QPVLTQPPSASGTPGQRVTISCSGSSSNIGSNTVNWYQQLPGTAPKLLIYSDNQRPSGVPDRFSGSKSGTSASLTISGLKTEDEAGYYCQSDDTSNVVFGGGTKVTVL	
